Measurements taken from PMC5389579.

Molecular target: SSRP1 (Flag) (human, UniProt Q08945 1-709)
Experiment: EMSA

Sequence of SSRP1 (Flag) (Q08945 whole entry): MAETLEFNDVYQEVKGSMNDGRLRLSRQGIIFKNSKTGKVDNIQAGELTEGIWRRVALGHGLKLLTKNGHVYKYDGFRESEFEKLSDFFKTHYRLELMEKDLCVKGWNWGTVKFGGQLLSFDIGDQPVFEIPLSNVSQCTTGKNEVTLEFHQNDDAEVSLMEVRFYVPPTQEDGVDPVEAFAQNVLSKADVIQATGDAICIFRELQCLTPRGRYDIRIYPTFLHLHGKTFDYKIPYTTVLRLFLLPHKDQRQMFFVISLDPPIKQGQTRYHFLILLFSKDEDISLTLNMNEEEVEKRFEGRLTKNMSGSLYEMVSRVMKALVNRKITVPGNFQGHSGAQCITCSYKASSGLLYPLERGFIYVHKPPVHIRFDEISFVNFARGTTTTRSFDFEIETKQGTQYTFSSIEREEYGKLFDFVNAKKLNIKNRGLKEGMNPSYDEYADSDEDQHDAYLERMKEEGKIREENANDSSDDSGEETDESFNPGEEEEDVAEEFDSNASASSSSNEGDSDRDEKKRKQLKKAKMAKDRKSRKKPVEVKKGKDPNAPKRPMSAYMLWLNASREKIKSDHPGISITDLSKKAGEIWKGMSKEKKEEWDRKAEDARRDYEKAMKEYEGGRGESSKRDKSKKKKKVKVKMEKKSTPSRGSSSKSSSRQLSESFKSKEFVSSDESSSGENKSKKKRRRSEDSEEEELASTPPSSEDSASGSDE

B1: AC probe (dsDNA)
DNA 1: ACACACACACACACACACACACACACACACACACAC
DNA 2: GTGTGTGTGTGTGTGTGTGTGTGTGTGTGTGTGTGT
B1: binds.
